Results as given in article PMC12548384.

Assays:
[1] = biological target: T1, CmrR (Clostridioides difficile R20291) (UniProt A0A9R0CG09); test: EMSA; details: EMSA: 15 nM probe, 1x binding buffer 20 mM Tris pH 8, 1 mM EDTA, 10 mM MgCl2, 100 mM NaCl, 5% glycerol, plus half volume protein in His6 buffer (10 mM Tris …)
T1 sequence: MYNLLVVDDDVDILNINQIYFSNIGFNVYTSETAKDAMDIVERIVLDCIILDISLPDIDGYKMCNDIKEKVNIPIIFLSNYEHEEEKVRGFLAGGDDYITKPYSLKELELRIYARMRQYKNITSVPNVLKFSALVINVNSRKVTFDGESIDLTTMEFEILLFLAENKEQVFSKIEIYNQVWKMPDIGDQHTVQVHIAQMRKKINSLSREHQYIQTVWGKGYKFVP

[2] = biological target: CmrT-D9A fused to the smbit or lgbit portion of split luciferase (C. difficile two-hybrid) (Clostridioides difficile R20291); test: split reporter (BiFC, NanoBiT); C. difficile bacterial two-hybrid with split luciferase (smbit, lgbit) from one ATc-inducible transcript; 200 ng/mL ATc for 1 h in BHIS-Tm10; Nano-Glo reagent; luminescence per OD600
[3] = biological target: CmrT-K102A fused to the smbit or lgbit portion of split luciferase (C. difficile two-hybrid) (Clostridioides difficile R20291); test: as above
[4] = biological target: CmrT fused to the smbit or lgbit portion of split luciferase (C. difficile two-hybrid) (Clostridioides difficile R20291); test: as above

Row | Substance | binding [1] | also measured
1 | TTGCACCACTAACTCCATATATCTCCAGATGCCCAATAATAAGATATACTTCTCAGTTTCTAAAATATTTTTATTAAAAATCTTTTATATATTTTCATAAATTTCTTTTTTATTCTAACATTGTAATATTATTTTGTCAATATTTCCATATTTTTAGATATAAGATACTAAAATACCTATTTTATCTAAAGATATTTATATTTCTACATTCAATAATAGACAATACCCTGCAAGTTAAAGCATC (double strand) [probe 1 (upstream of TSS1)] | no binding | –
2 | CmrT-D9A fused to the smbit or lgbit portion of split luciferase (C. difficile two-hybrid) (natural protein) | – | log10 fold change of luciferase signal against wild-type CmrT (log10 fold change) [2]: -1.27
3 | GTATTTAATAATAAATCTTAATGTTCAATACAATATTCAAGAATTGTTCAAAAATACTTAAGTATTATAGTCTAGTTTGTAAAGATATTATAAAATAATAATACTAGTTATATATGAAAATAAAACATTATAATTTGTAATAATTATAAAACTTGAGATTATGATTAAAATACCTTTGAATGGAGTGGTGTAATGTATAATTTACTGGTTGTAGATGATGATGTTG (double strand) [probe 7 (TSS4, 226 bp)] | binds | –
4 | GCCAAAATTTCACCTATCAATAAAAATCTTAACGACTAATACTCTTATTTTCAAATTTTGCAACATTTTTGTTAATTTTAAAGCAAAAAAAGACTATGCAATATAAAAATTATATTCATAGCCGGTTGCACCACTAACTCCATATATCTCC (double strand) [probe 2] | no binding | –
5 | CmrT-K102A fused to the smbit or lgbit portion of split luciferase (C. difficile two-hybrid) (natural protein) | – | log10 fold change of luciferase signal against wild-type CmrT (log10 fold change) [3]: -0.64
6 | CTAGCCAATAGACAAGTTTCTAGAAAAATAATAAATTTATAAGTGAAAATGACTTTAAGCTCCATTCTCCAACAATCGGAGACTTTAATTAGTATTTAATAATAAATCTTAATGTTCAATACAATATTCAAGAATTGTTCAAAAATACTTAAG (double strand) [probe 9 (cmr switch in other orientation than probe 6)] | binds | –
7 | CmrT fused to the smbit or lgbit portion of split luciferase (C. difficile two-hybrid) (natural protein) | – | log10 fold luciferase activity over the negative control [4]: 3.6 log10 fold
8 | ATTCAAGAATTGTTCAAAAATACTTAAGTATTATAGTCTAGTTTGTAAAGATATTATAAAATAATAATACTAGTTATATATGAAAATAAAACATTATAATTTGTAATAATTATAAAACTTGAGATTATGATTAAAATACCTTTGAATGGAGTGGTGTAATGTATAATTTACTGGTTGTAGATGATGATGTTG (double strand) [probe 4 (TSS4, 192 bp)] | binds more weakly | –
